{"source": "patent US12129308", "about": "(Merck KGaA, dated 2024)", "binders": {"B1": {"name": "C0101PMP040E09 (VHH)", "VHH": "EVQLVESGGGSVQAGGSLRLSCAASGSTFSRYSMNWYRQAPGKQREFVAGISVGRITNYAVSVRGRFTISRDNAEGTGYLQMNSLKPEDTAVYYCNAGGLQGYWGLGTQVTVSS", "notes": "Profile 1 Nanobody; also called C0101040E09"}, "B2": {"name": "C010100729 (bispecific antibody)", "chain": "DVQLVESGGGLVQPGGSLRLSCAASGRTFSSYAMGWFRQAPGKEREFVAAISWSGGSTYYADSVKGRFTISRDNSKNTVYLQMNSLRPEDTAVYYCTAALAVYGPSRYRYGPVGEYQYWGQGTLVTVSSGGGGSGGGGSGGGGSGGGGSGGGGSGGGGSGGGGSEVQLVESGGGLVQPGGSLRLSCAASGSTFSRYSMNWYRQAPGKQREFVAGISVGRITNYAVSVKGRFTISRDNSKNTGYLQMNSLRPEDTAVYYCNAGGLQGYWGQGTLVTVSSGGGGSGGGGSGGGGSGGGGSGGGGSGGGGSGGGGSEVQLVESGGGLVQPGGSLRLSCAASGRTFSSYTMGWFRQAPGKEREFVAAISWSGGRTYYADSVKGRFTISRDNSKNTVYLQMNSLRPEDTAVYYCAAYRRRRASSNRGLWDYWGQGTLVTVSSA", "notes": "also called 517A01SO-40E09SO-604F02SO-A"}, "B3": {"name": "C0101PMP517A01 (VHH)", "VHH": "DVQLVESGGGLVQPGGSLRLSCAASGRTFSSYAMGWFRQAPGKEREFVAAISWSGGSTYYADSVKGRFTISRDNSKNTVYLQMNSLRPEDTAVYYCTAALAVYGPNRYRYGPVGEYNYWGQGTLVTVSS", "notes": "Profile 2 Nanobody; also called C0101517A01; C010100087 (parental)"}, "B4": {"name": "C010100702 (bispecific antibody)", "chain": "EVQLVESGGGLVQPGGSLRLSCAASGRTFSSYAMGWFRQAPGKEREFVAAISWSGGSTYYADSVKGRFTISRDNSKNTVYLQMNSLRPEDTAVYYCTAALAVYGPSRYRYGPVGEYQYWGQGTLVTVSSGGGGSGGGGSGGGGSGGGGSGGGGSGGGGSGGGGSEVQLVESGGGSVQPGGSLRLSCAASGSTFSRYSMNWYRQAPGKQREFVAGISVGRITNYAVSVRGRFTISRDNSEGTGYLQMNSLRPEDTAVYYCNAGGLQGYWGLGTLVTVSSGGGGSGGGGSGGGGSGGGGSGGGGSGGGGSGGGGSEVQLVESGGGLVQPGGSLRLSCAASGSTFIINVVRWYRRAPGKQRELVATISSGGNANYVDSVRGRFTISRDNSKNTVYLQMNSLRPEDTAVYYCNVPTTHYGGVYYGPYWGQGTLVTVSSGGGGSGGGGSGGGGSGGGGSGGGGSGGGGSGGGGSEVQLVESGGGLVQPGGSLRLSCAASGSTFIINVVRWYRRAPGKQRELVATISSGGNANYVDSVRGRFTISRDNSKNTVYLQMNSLRPEDTAVYYCNVPTTHYGGVYYGPYWGQGTLVTVSS", "notes": "also called 517A01SO-40E09SOvar-114F08SO-114F08SO"}, "B5": {"name": "C010100690 (bispecific antibody)", "chain": "EVQLVESGGGLVQPGGSLRLSCAASGFTLAYYSIGWFRQAPGKEREGVSCISSGIDGSTYYADSVKGRFTISRDNAKNTMYLQMNNLKPEDTGVYYCAADPSHYYSEYDCGYYGMDYWGKGTLVTVSSGGGGSGGGGSGGGGSGGGGSGGGGSGGGGSGGGGSEVQLVESGGGLVQPGGSLRLSCAASGRTFSSYTMGWFRQAPGKEREFVAAISWSGGRTYYADSVKGRFTISRDNSKNTVYLQMNSLRPEDTAVYYCAAYRRRRASSNRGLWDYWGQGTLVTVSS", "notes": "MMP13-Aggrecan bispecific Nanobody construct; also called 80A01-604F02SO"}, "B6": {"name": "C010100724 (bispecific antibody)", "chain": "DVQLVESGGGLVQPGGSLRLSCAASGSIFSINAMGWYRQAPGKQRELVAAISSGGSTYYADSVKGRFTISRDNSKNTVYLQMNSLRPEDTAVYYCNAAVDASRGLPYELYYYWGQGTLVTVSSGGGGSGGGGSGGGGSGGGGSGGGGSGGGGSGGGGSEVQLVESGGGLVQPGGSLRLSCAASGRTFSSYTMGWFRQAPGKEREFVAAISWSGGRTYYADSVKGRFTISRDNSKNTVYLQMNSLRPEDTAVYYCAAYRRRRASSNRGLWDYWGQGTLVTVSSA", "notes": "MMP13-Aggrecan bispecific Nanobody construct; also called 529C12SO-604F02SO-A"}, "B7": {"name": "C010100682 (bispecific antibody)", "chain": "EVQLVESGGGLVQPGGSLRLSCAASGSIFSINAMGWYRQAPGKQRELVAAISSGGSTYYADSVKGRFTISRDNSKNTVYLQMNSLRPEDTAVYYCNAAVDASRGLPYELYYYWGQGTLVTVSSGGGGSGGGGSGGGGSGGGGSGGGGSGGGGSGGGGSEVQLVESGGGLVQPGGSLRLSCAASGSTFIINVVRWYRRAPGKQRELVATISSGGNANYVDSVRGRFTISRDNSKNTVYLQMNSLRPEDTAVYYCNVPTTHYGGVYYGPYWGQGTLVTVSSGGGGSGGGGSGGGGSGGGGSGGGGSGGGGSGGGGSEVQLVESGGGLVQPGGSLRLSCAASGSTFIINVVRWYRRAPGKQRELVATISSGGNANYVDSVRGRFTISRDNSKNTVYLQMNSLRPEDTAVYYCNVPTTHYGGVYYGPYWGQGTLVTVSS", "notes": "MMP13-Aggrecan bispecific Nanobody construct; also called 529C12SO-114F08SO-114F08SO"}}, "key": {"activated human MMP13 [1]": {"biological_target": "T1, activated human MMP13 (human, UniProt P45452 104-471)", "assay": "cell-based or functional assay"}, "activated human MMP13 [2]": {"biological_target": "T1, activated human MMP13", "assay": "cell-based or functional assay", "remark": "listed apart in the source"}, "activated human MMP13 [3]": {"biological_target": "T1, activated human MMP13", "assay": "competition ELISA: dilution series of Nanobody against 0.6 nM biotinylated 40E09 (C0101040E09-biotin) on APMA-activated human full-length MMP13 captured via mouse anti-human MMP13 mAb MAB511"}, "activated human MMP13 [4]": {"biological_target": "T1, activated human MMP13", "assay": "ELISA; activated MMP13 captured via mAb511, Nanobody detected with anti-FLAG-HRP", "method": "(§1) After a washing step in PBS+0.05% Tween20, 20 nM activated human, rat or dog MMP13 were added for one hour at RT. After a second washing step, 10-fold dilutions of periplasmic extracts or dilution series of purified Nanobodies in PBS, 0.1% casein, 0.05% Tween 20 were added for one hour at RT. Bound Nanobodies were detected with mouse anti-FLAG-HRP (Sigma (A8592))."}, "activated dog MMP13 [5]": {"biological_target": "T2, activated dog MMP13 (dog, UniProt P45452 104-471 (human entry))", "T2 construct": "also called MMP13 C. lupus XP_536598.3", "assay": "ELISA; activated MMP13 captured via mAb511, Nanobody detected with anti-FLAG-HRP", "method": "as §1"}, "activated rat MMP13 [6]": {"biological_target": "T3, activated rat MMP13 (rat, UniProt P23097 99-466)", "T3 construct": "also called MMP13 R. norvegicus NP_598214.1", "assay": "ELISA; activated MMP13 captured via mAb511, Nanobody detected with anti-FLAG-HRP", "method": "as §1"}, "activated human MMP13 [7]": {"biological_target": "T1, activated human MMP13", "assay": "cell-based or functional assay", "remark": "listed apart in the source"}, "Aggrecan": {"biological_target": "T4, Aggrecan", "T4 construct": "also called CAP", "assay": "competition ELISA (CAP) on Aggrecan; competitor not stated"}, "[8]": {"biological_target": "T5, activated MMP13 (species not stated) (Homo sapiens (Human), UniProt P45452 104-471, Biotinylated in the TIMP-2 competition ELISA (sites not given). Activated form: pro-peptide removed.)", "T5 construct": "campaign 4 ELISA; Probably human", "assay": "TIMP-2 competition ELISA; Nanobody pre-incubated with 1.26 nM activated MMP13-biotin, binding to captured TIMP-2"}, "activated human MMP13 [9]": {"biological_target": "T1, activated human MMP13", "assay": "cell-based or functional assay", "remark": "listed apart in the source"}, "activated rat MMP13 [10]": {"biological_target": "T3, activated rat MMP13", "assay": "cell-based or functional assay"}, "[11]": {"biological_target": "T5, activated MMP13 (species not stated)", "assay": "cell-based or functional assay"}, "bovine MMP13": {"biological_target": "bovine MMP13 (bovine, UniProt O77656 104-471)", "assay": "cell-based or functional assay"}, "activated dog MMP13 [12]": {"biological_target": "T2, activated dog MMP13", "assay": "cell-based or functional assay"}, "cynomolgus MMP13": {"biological_target": "cynomolgus MMP13 (cynomolgus, UniProt A0A2K5U988 104-471)", "assay": "cell-based or functional assay"}, "activated rat MMP13 [13]": {"biological_target": "T3, activated rat MMP13", "assay": "cell-based or functional assay", "remark": "listed apart in the source"}}, "note": "Read-outs that look alike come from different tables or passages of the source.", "data": [{"binder": "B1", "values": [{"measurement": "IC50 (read off the curve); fluorogenic Collagen assay, partial inhibition [left graph]", "setting": "activated human MMP13 [1]", "result": "~20", "unit": "nM"}, {"measurement": "IC50, human collagenolytic assay", "setting": "activated human MMP13 [2]", "result": 10.2, "unit": "nM"}, {"measurement": "IC50 (read off the curve)", "setting": "activated human MMP13 [3]", "result": "~4", "unit": "nM"}, {"measurement": "EC50", "setting": "activated human MMP13 [4]", "result": 0.66, "unit": "nM"}, {"measurement": "EC50", "setting": "activated dog MMP13 [5]", "result": 0.38, "unit": "nM"}, {"measurement": "EC50", "setting": "activated rat MMP13 [6]", "result": 0.44, "unit": "nM"}]}, {"binder": "B2", "values": [{"measurement": "potency, human fluorogenic peptide assay", "setting": "activated human MMP13 [7]", "result": 0.541, "unit": "nM"}, {"measurement": "IC50", "setting": "Aggrecan", "result": 21, "unit": "nM"}]}, {"binder": "B3", "values": [{"measurement": "IC50", "setting": "[8]", "result": 2.6, "unit": "nM"}, {"measurement": "IC50, human fluorogenic collagen assay", "setting": "activated human MMP13 [9]", "result": 10.8, "unit": "nM"}, {"measurement": "IC50, (adapted) rat fluorogenic peptide assay", "setting": "activated rat MMP13 [10]", "result": 2.64, "unit": "nM"}, {"measurement": "IC50, fluorogenic peptide assay", "setting": "[11]", "result": 2.5, "unit": "nM"}, {"measurement": "IC50, bovine fluorogenic peptide assay", "setting": "bovine MMP13", "result": 6.4, "unit": "nM"}, {"measurement": "IC50, human collagenolytic assay", "setting": "activated human MMP13 [2]", "result": 2.3, "unit": "nM"}, {"measurement": "IC50, human fluorogenic collagen assay", "setting": "activated human MMP13 [2]", "result": 10.9, "unit": "nM"}, {"measurement": "IC50, human fluorogenic peptide assay", "setting": "activated human MMP13 [2]", "result": 4.6, "unit": "nM"}, {"measurement": "IC50, dog fluorogenic peptide assay", "setting": "activated dog MMP13 [12]", "result": 3.4, "unit": "nM"}, {"measurement": "IC50, cyno fluorogenic peptide assay", "setting": "cynomolgus MMP13", "result": 3, "unit": "nM"}, {"measurement": "IC50, rat fluorogenic peptide assay", "setting": "activated rat MMP13 [13]", "result": 2.1, "unit": "nM"}]}, {"binder": "B4", "values": [{"measurement": "potency, human fluorogenic peptide assay", "setting": "activated human MMP13 [7]", "result": 0.0771, "unit": "nM"}, {"measurement": "IC50", "setting": "Aggrecan", "result": 0.12, "unit": "nM"}]}, {"binder": "B5", "values": [{"measurement": "potency, human fluorogenic peptide assay", "setting": "activated human MMP13 [7]", "result": 2.42, "unit": "nM"}, {"measurement": "IC50", "setting": "Aggrecan", "result": 24, "unit": "nM"}]}, {"binder": "B6", "values": [{"measurement": "potency, human fluorogenic peptide assay", "setting": "activated human MMP13 [7]", "result": 0.697, "unit": "nM"}, {"measurement": "IC50", "setting": "Aggrecan", "result": 32, "unit": "nM"}]}, {"binder": "B7", "values": [{"measurement": "potency, human fluorogenic peptide assay", "setting": "activated human MMP13 [7]", "result": 0.551, "unit": "nM"}, {"measurement": "IC50", "setting": "Aggrecan", "result": 0.45, "unit": "nM"}]}]}
